Measured values reported in US20260234283A1 (published 2026).

T1: recombinant cyno SIRPα-His (cynomolgus monkey, UniProt A0A2K5VYQ9 31-372)
T1 chain: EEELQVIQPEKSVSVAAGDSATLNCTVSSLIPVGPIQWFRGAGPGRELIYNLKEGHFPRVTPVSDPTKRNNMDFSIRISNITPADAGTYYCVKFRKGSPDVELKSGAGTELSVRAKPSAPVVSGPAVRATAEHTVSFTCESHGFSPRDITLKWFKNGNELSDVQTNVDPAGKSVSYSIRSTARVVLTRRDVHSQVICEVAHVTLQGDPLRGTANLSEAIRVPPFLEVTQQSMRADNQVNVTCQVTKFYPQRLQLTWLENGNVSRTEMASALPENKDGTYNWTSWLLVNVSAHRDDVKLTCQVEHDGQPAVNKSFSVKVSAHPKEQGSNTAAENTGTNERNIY


Experiments:
Experiment in all cases: Biacore
[1] = target: recombinant human SIRPα-His V2 (human, UniProt P78324 31-370)
Sequence of recombinant human SIRPα-His V2 (P78324 other isoform, or with tags, fused parts or gaps): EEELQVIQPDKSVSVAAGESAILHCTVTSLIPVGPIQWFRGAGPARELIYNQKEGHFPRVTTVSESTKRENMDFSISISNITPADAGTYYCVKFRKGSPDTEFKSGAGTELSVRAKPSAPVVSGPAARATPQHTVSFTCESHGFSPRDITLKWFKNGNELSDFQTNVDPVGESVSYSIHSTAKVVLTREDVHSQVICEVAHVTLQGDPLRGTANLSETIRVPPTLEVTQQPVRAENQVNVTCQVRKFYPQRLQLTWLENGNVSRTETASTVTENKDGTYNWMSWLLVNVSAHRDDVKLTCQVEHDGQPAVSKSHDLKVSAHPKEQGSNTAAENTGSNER

[2] = target: recombinant human SIRPα-His V8 (human, UniProt P78324 31-370)
Sequence of recombinant human SIRPα-His V8 (P78324 other isoform, or with tags, fused parts or gaps): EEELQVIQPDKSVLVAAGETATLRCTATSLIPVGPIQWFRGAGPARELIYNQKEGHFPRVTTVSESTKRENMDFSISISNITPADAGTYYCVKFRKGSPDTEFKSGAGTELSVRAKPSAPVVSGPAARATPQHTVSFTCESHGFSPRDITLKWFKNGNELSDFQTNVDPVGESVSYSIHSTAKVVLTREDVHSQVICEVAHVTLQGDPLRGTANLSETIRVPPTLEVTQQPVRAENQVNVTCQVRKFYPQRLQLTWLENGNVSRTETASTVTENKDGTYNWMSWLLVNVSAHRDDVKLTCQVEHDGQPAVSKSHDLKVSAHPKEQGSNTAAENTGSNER

[3] = target: T1, recombinant cyno SIRPα-His

Binder | Kd [1] [nM] | Kd [2] [nM] | Kd [3] [nM]
54.8A5.A5 (antibody, V domains shown) VH: EVQLVESGGDLIQPGGSLRLSCAASGFSFSSYDMHWVRQTTGKGLEWVSAIGTAGDTYYPGSVKGRFTISRENAKNSLYLQMNSLRAGDTAVYYCARGGNWDDAFDIWGQGTVVTVSS VL: DIQMTQSPSSLSASVGDRVTITCRASQDINNYLAWFQQKPGRAPKSLIFTASRLQSGVPSKFSGSGSGTDFSLTISSLQPEDFATYYCQQYTFYPYTFGQGTKLEIK | 1.13 | 1.05 | 72.3
49.64D3.A6 (antibody, V domains shown) VH: EVMLVESGGGLVKPGGSLKLTCAASGFIFSNYAMSWVRQTPEKRLEWVATFSSGGSYTYYQDSVKGRFTVSRDNAKNTLYLQMSSLRSEDTAMYYCARSGWDGWFAYWGQGTLVTVSA VL: not shown | 3.17 | 2.66 | 22.6
49.56C11.C1 (antibody, V domains shown) VH: EVMLVESGGGLVKPGGSLKLTCAASGFTFSNHAMSWVRQTPEKRLEWVATFGSGGSYTYYLDSVKGRFTVSRDNAKNTLYLQMSSLRSEDTAMYYCSRSGWDGWFAYWGQGTLVTVSA VL: not shown | 3.41 | 2.68 | 22.3
49.91C2.A9 (antibody, V domains shown) VH: EVKLLESGGGLVQPGGSLKLSCAASGFDFSRYWMSWVRQAPGKGLEWIGEINPDSSTINYTPSLKDKFIISRDNAKNTLYLQMSKVRSEDTALYYCATSFYGSSYWYFDVWGAGTTVTVSS VL: not shown | 40.2 | 35 | 
53.21A9.B11 (antibody, V domains shown) VH: QVQLQESGPGLVKPSETLSLTCTVSGGSVSSGRYYWSWIRQPPGKGLEWIGYIYYSGSTNYNPSLKSRVTISVDTSKNQFSLKLTSVTAADTAVYYCARAYDWNYFFDYWGQGTLVTVSS VL: DIVMTQSPLSLPVTPGEPASISCRSSQSLLYSNGYNYLEWYLQKPGQSPQLLIYLGSNRASGVPDRFSGSGSGTDFTLQISRVEAEDVGVYYCMQGLQTPITFGQGTRLEIK | 67.6 | 62.3 | 116

Results, then the binder that gave them:

Kd [1] [nM] | Kd [2] [nM] | Kd [3] [nM] | Binder
< 0.1 | < 0.1 | 3.03 | 54.69B10.E7 (antibody, V domains shown) VH: EVQLVESGGGLVQPGGSLRLSCAASGFTFSSYDMHWVRQTTGKGLEWVSVIGIAGDTYYAGSVKGRFTISRENAKSSLYLQMNSLRAGDTAVYYCARGGNWDDAFDIWGQGTMVTVSS VL: DIQMTQSPSSLSASVGDRVTITCRASQDINNYLAWFQQKPGKAPKSLIYTTSSLQSGVPSKFSGSGSGTDFTLTISSLQPEDFATYYCQQYVSYPYTFGQGTKLEIK
< 0.1 | < 0.1 | 3.17 | 54.76D9.B6 (antibody, V domains shown) VH: EVQLVESGGGLVQPGGSLRLSCAASGFTFSSYDMHWVRQATGKGLEWVSVIGISGDTYYPGSVKGRFTISRENAKNSLHLQMNSLRAGDTAVYYCARGGNWDDALDIWGQGTMVTVSS VL: DIQMTQSPSSLSASVGDRVTITCRASQDINNYLAWFQQKPGKAPKSLIYTTSSLQSGVPSKFSGSGSGTDFTLTISSLQPEDFATYYCQQYVSYPYTFGQGTKLEIK
< 0.1 | < 0.1 | 2.65 | 54.58C2.B9.A2 (antibody, V domains shown) VH: EVQLVESGGGLVQPGGSLRLSCAASGFTFSSYDMHWVRQATGKGLEWVSVIGISGDTYYPGSVKGRFTISRENAKNSLYLQMNSLRAGDTAVYYCARGGNWDDAFDIWGQGTMVTVSS VL: DIQMTQSPSSLSASVGDRVTITCRASQDINNYLAWFQQKPGKAPKSLIYTTSSLQSGVPSKFSGSGSGTDFTLTISSLQPEDFATYYCQQYVSYPYTFGQGTKLEIK
0.981 | 0.337 | 1.19 | 56.16A1.H11 (antibody, V domains shown) VH: EVQLVESGGGLVQPGRSMKLSCAASGFIFTNYDMAWVRQAPTKGLEWVASISYGGSRIYYRDSVKGRFTISRDDAKSTLYLQMDSLRSEDTATYYCTTDYGYNPSYYWYFDFWGPGTMVTVSS VL: DIQMTQTPSSMPASLGERVTISCRASQGISNYLNWYQQKPDGTIKPLIYYTSNLQSGVPSRFSGSGSGTDYSLTISSLEPEDFAMYYCQQYDSSPYTFGAGTKLELKR
